The labels stand for the following.
B1: recombinant L1CAM ectodomain (L1CAM-ED) (domain or fragment, human, UniProt P32004 20-1120, looked up)
chain: IQIPEEYEGHHVMEPPVITEQSPRRLVVFPTDDISLKCEASGKPEVQFRWTRDGVHFKPKEELGVTVYQSPHSGSFTITGNNSNFAQRFQGIYRCFASNKLGTAMSHEIRLMAEGAPKWPKETVKPVEVEEGESVVLPCNPPPSAEPLRIYWMNSKILHIKQDERVTMGQNGNLYFANVLTSDNHSDYICHAHFPGTRTIIQKEPIDLRVKATNSMIDRKPRLLFPTNSSSHLVALQGQPLVLECIAEGFPTPTIKWLRPSGPMPADRVTYQNHNKTLQLLKVGEEDDGEYRCLAENSLGSARHAYYVTVEAAPYWLHKPQSHLYGPGETARLDCQVQGRPQPEVTWRINGIPVEELAKDQKYRIQRGALILSNVQPSDTMVTQCEARNRHGLLLANAYIYVVQLPAKILTADNQTYMAVQGSTAYLLCKAFGAPVPSVQWLDEDGTTVLQDERFFPYANGTLGIRDLQANDTGRYFCLAANDQNNVTIMANLKVKDATQITQGPRSTIEKKGSRVTFTCQASFDPSLQPSITWRGDGRDLQELGDSDKYFIEDGRLVIHSLDYSDQGNYSCVASTELDVVESRAQLLVVGSPGPVPRLVLSDLHLLTQSQVRVSWSPAEDHNAPIEKYDIEFEDKEMAPEKWYSLGKVPGNQTSTTLKLSPYVHYTFRVTAINKYGPGEPSPVSETVVTPEAAPEKNPVDVKGEGNETTNMVITWKPLRWMDWNAPQVQYRVQWRPQGTRGPWQEQIVSDPFLVVSNTSTFVPYEIKVQAVNSQGKGPEPQVTIGYSGEDYPQAIPELEGIEILNSSAVLVKWRPVDLAQVKGHLRGYNVTYWREGSQRKHSKRHIHKDHVVVPANTTSVILSGLRPYSSYHLEVQAFNGRGSGPASEFTFSTPEGVPGHPEALHLECQSNTSLLLRWQPPLSHNGVLTGYVLSYHPLDEGGKGQLSFNLRDPELRTHNLTDLSPHLRYRFQLQATTKEGPGEAIVREGGTMALSGISDFGNISATAGENYSVVSWVPKEGQCNFRFHILFKALGEEKGGASLSPQYVSYNQSSYTQWDLQPDTDYEIHLFKERMFRHQMAVKTNGTGRVRLPPAGFATE

The data set “SPR” concerns the molecule itself. The data set is described as follows: SPR.
Data set [1] has as its target B1. As to the kind of experiment: SPR.

Consider B1, for which the Kd (usually the equilibrium constant for the complex coming apart) in the data set “SPR” stood at 17 ± 1.3 nM.

B2: ROBO3-A peptide (peptide)
peptide: LKEEEGRITIRGGK
On to B2, for which the “percent reduction of the RUmax of L1CAM-ED binding to immobilised L1CAM-ED” value (shortened to “percent reduction”) in data set [1] came out at 20%.

B3: CNTN2-A peptide (peptide)
peptide: FIPTDGRHFVSQTTG
For B3, the “percent reduction” value in data set [1] turned out to be 20%.

B4: DCC-A peptide (peptide)
peptide: PIPGDSRVVVLPSG
B4: the “percent reduction” value in data set [1] was 20%.

(Values after paper PMC8529090 (Computational and Structural Biotechnology Journal, 2021).)
